Experiment [1] has as its target T1, Recombinant wild type human Plasminogen Activator Inhibitor type 1 (PAI-1) (human, UniProt P05121 24-402).
T1 construct: In the yeast two-hybrid confirmation full-length human PAI-1 was cloned in pGADT7 (GAL4 prey fusion); also called recombinant wt PAI-1; rPAI-1
As to the kind of experiment: SPR (BIAcore 1000), PAI-1 immobilized on CM5 chip, 25 C. A general note: In SPR one partner is held on a chip, and binding of the other changes the refractive index at the surface.

Experiment [2] deals with T2, urokinase-type plasminogen activator (uPA) (UniProt P00749 21-431, limits assumed). As to the kind of experiment: immunoprecipitation with uPA without PAI-1, Western blot for 14K GH. Background: In western blotting, separated proteins are transferred to a membrane and probed.
For experiment [3], the target named is T1, Recombinant wild type human Plasminogen …. As to the kind of experiment: SPR (BIAcore 1000), 16K hPRL immobilized on CM5 chip, 25 C.
For experiment [4], the target named is T2, urokinase-type plasminogen activator …. As to the kind of experiment: immunoprecipitation with uPA without PAI-1, Western blot for 16K PRL.
Experiment [5] deals with T3, PAI-1/uPA complex (human, UniProt P05121 24-402; P00749 21-431, limits assumed).
T3 construct: For SPR formed by incubating PAI-1 (2 uM) and uPA (1.4 uM) for 10 min at 37 C before loading; also called uPA/PAI-1; uPA-PAI-1 complex
As to the kind of experiment: SPR (BIAcore 1000), 16K hPRL immobilized on CM5 chip, PAI-1 pre-incubated with uPA, 25 C.

B1: Recombinant 14K N-terminal human growth hormone (14K hGH) (other)
chain: MFPTIPLSRLFDNAMLRAHRLHQLAFDTYQEFEEAYIPKEQKYSFLQNPQTSLSFSESIPTPSNREETQQKSNLELLRISLLLIQSWLEPVQFLRSVFANSLVYGASDSNVYDLLKDLEEGIQTLMGRLEDGSP
notes: Produced in E. coli as in WO 98/51323; it is tied to the 14-16 kD fragments in general, not to the tested batch; also called 14K GH; r14K GH
Regarding B1, the Kd in experiment [1] was 1000 nM. Also, the binding result in experiment [2] is listed as “no binding”.

B2: Recombinant 16K N-terminal human prolactin (16K hPRL) (other, UniProt P01236 29-167, looked up)
chain: LPICPGGAARCQVTLRDLFDRAVVLSHYIHNLSSEMFSEFDKRYTHGRGFITKAINSCHTSSLATPEDKEQAQQMNQKDFLSLIVSILRSWNEPLYHLVTEVRGMQEAPEAILSKAVEIEEQTKRLLEGMELIVSQVHP
notes: domain: 16K N-terminal fragment; also called 16K PRL; 16K prolactin
On to B2, for which the values for the dissociation constant (Kd) in experiment [1], in experiment [3] and in experiment [5] were 600 nM, 580 nM and 150 nM, respectively. The binding result in experiment [4] is “no binding”.

A word on the Kd: it is the equilibrium constant for the complex coming apart.

For the origin of these results see patent US20130035289A1 (UNIVERSITE DE LIEGE, published 2013).
